Measured values reported in patent US10005846B2, “Anti-transglutaminase 2 antibodies” (MEDICAL RESEARCH COUNCIL TECHNOLOGY, priority 2012, dated 2018).

Experiments:
human TG2 = target: T1, human TG2 (Homo sapiens, UniProt P21980); test: 3H-putrescine incorporation TG activity assay with recombinant human TG2; type: biochemical; details: for hybridoma supernatant ability to inhibit TG2 activity: initial screen of conditioned medium, 100 ng of TG2
T1 sequence (P21980 1-687): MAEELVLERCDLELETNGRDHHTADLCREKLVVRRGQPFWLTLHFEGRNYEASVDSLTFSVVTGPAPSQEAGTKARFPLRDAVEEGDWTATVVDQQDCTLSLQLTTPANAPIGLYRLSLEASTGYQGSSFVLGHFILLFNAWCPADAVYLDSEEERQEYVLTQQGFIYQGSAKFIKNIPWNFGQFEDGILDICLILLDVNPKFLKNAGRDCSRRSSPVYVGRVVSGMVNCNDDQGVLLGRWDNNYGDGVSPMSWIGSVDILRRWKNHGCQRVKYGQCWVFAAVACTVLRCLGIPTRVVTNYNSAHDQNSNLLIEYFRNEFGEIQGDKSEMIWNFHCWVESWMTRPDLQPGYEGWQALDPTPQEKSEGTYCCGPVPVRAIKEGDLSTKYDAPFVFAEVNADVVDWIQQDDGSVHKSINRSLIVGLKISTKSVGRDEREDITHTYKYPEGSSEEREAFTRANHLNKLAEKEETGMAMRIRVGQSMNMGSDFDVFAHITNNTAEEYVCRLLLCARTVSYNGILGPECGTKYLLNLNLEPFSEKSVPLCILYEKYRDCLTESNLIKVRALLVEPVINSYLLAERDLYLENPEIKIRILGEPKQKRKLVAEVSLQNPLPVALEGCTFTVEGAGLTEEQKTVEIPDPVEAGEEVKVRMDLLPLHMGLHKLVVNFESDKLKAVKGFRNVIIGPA
Description: To determine an IC50 value for each antibody against human, rat and mouse the ^3H Putrescine assay was used. 100 ng of human TG2 or 25 ng of mouse and rat TG2 was used to generate a reaction where approximately 3000 cpm of Putrescine were incorporated per hour in 10 ul of the reaction mixture. Serial dilutions of each antibody were then applied starting from adding 500 ng (5 ug/ml final concentration) to the reaction mixture and incubated with the TG2 for 20 minutes prior to activating the reaction. IC50 values were calculated by determining the concentration at which the enzymatic rate of reaction was reduced by 50% using an appropriate curve fit in graphpad prism. Values are expressed as the amount of IgG in […] in the reaction that would inhibit 1 ng of TG2.
TG activity is measured by the Ca^2+ dependent incorporation of ^3H-putrescine into N′,N′-dimethylcasein. Recombinant human TG2 (100 ng) was pre-incubated for twenty minutes at room temperature with the test sample (conditioned medium or purified IgG) before starting the reaction. Twenty-five μl of reaction mix (5 μl of 25 mM CaCl2, 5 μl of 40 mM dithiothreitol, 5 μl ^3H-putrescine mix, and 10 μl 25 mg/ml of N,N′ dimethylcasein (replace 25 mM CaCl2 with 100 mM EDTA for a non-enzymatic control) was added to start the reaction and the samples incubated at 37° C. for up to 1 hour. Aliquots of 10 μl were spotted onto a strip of 3 MM Whatman filter paper and plunged immediately into ice-cold 10% trichloroacetic acid (TCA) in order to precipitate the cross-linked proteins typically at time 0, 10, 30 and 60 minutes into the reaction. After three extensive washes in ice-cold 5% TCA followed by 3 rinses with ice-cold 95% ethanol, the air dried filter was counted in 2 ml of scintillation fluid (Ultima Gold Packard, Perkin Elmer). The rate of reaction was calculated. 1 TG unit is equivalent to the incorporation of 1 nmol of putrescine per hour at 37° C.

[1] = target: T2, TG2 activity in HepG2 cell homogenate (Homo sapiens, UniProt P21980); test: 3H putrescine incorporation TG activity assay in HepG2 cell homogenate; type: biochemical
T2 construct: endogenous in cells; host or cells: HepG2
T2 sequence (P21980 1-687): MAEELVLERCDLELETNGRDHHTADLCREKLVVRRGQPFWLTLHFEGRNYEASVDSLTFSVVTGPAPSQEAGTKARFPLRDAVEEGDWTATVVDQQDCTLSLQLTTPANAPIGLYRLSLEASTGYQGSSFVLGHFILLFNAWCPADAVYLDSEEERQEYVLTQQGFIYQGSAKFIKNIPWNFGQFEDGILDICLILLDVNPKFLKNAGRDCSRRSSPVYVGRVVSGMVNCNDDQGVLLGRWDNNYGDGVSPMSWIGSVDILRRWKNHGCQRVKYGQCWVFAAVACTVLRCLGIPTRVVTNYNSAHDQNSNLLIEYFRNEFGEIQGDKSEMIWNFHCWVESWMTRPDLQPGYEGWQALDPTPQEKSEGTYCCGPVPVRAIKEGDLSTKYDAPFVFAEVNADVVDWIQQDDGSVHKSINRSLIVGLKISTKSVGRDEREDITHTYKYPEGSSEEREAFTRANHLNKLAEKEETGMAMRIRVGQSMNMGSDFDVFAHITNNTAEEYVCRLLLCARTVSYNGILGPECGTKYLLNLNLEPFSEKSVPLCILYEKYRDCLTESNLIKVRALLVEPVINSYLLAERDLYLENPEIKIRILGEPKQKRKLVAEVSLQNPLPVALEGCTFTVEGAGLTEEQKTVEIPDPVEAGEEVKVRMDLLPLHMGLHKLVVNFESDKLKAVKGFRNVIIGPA
Description: A: Hep2G cells were lysed and 45 ug of protein mixed with 750 ng of IgG from AB1, DH2, DD9, BB7, DC1 and EH6 for 20 minutes. This was subsequently assayed using the ^3H Putrescine incorporation TG activity assay with sampling over 1 hour. The rate of reaction was calculated and expressed as a percentage of the same lysate incubated with a random antibody (MAB002). Data represents the mean percentage inhibition ±SEM from 2 separate experiments done in duplicate. *p<0.05
HepG2 cells were kindly supplied by Richard Ross (University of Sheffield). Cells were routinely grown at 37° C. in a 95% humidified atmosphere of 5% CO2 in DMEM/4.5 g per liter glucose supplemented with 10% foetal calf serum (FCS), 100 IU penicillin and 100 μg/ml streptomycin, 2 mM I-glutamine (all GIBCO). Two million cells were seeded on a 10 cm dishes and grown for 48 hours. Cells were lysed in 250 μl of STE buffer (0.32M sucrose, 5 mM Tris, 1 mM EDTA containing protease inhibitors Phenylmethylsulphonyl fluoride (1 mM), benzamidine (5 mM), and leupeptin (10 μg/ml) and sonicated on ice to produce a cell lysate usable in TG2 activity assay.
The same protocol was used to assess TG inhibition in cell lysates by replacing the 25 μl of recombinant protein with 25 μl of cell lysate.

[2] = target: T3, extracellular TG2 in human HK-2 cells (Homo sapiens, UniProt P21980); test: Extracellular TG activity in HK-2 cells, biotin cadaverine incorporation into fibronectin (Example 1); type: cell-based
T3 construct: endogenous in cells; host or cells: HK-2 (kidney proximal tubular epithelium)
T3 sequence (P21980 1-687): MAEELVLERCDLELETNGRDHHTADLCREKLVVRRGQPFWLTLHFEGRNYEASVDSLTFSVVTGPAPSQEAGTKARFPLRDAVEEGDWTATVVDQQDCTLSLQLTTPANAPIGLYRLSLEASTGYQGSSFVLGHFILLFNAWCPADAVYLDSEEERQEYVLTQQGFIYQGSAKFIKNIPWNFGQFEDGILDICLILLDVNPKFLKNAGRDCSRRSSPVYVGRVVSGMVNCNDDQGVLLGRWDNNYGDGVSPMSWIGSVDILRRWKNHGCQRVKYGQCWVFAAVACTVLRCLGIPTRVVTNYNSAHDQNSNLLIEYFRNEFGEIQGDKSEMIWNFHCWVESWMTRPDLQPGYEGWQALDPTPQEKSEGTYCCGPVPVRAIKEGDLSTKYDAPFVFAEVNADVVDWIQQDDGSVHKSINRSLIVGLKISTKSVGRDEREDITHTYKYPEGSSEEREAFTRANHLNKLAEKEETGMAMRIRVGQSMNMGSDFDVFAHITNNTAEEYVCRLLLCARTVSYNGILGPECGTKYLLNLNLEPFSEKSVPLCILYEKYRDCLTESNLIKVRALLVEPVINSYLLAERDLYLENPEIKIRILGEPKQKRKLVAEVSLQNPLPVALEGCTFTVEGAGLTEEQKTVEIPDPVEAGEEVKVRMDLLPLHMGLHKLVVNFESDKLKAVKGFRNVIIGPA
Description: HK2 cells were plated onto fibronectin and incubated for 2 hours in the presence of 0.1M biotin cadaverine with either 4 ng/μl of human anti-TG2 antibody (AB1) (part A), 4 ng/μl of human anti-TG2 antibody (DC1) (part B) or 400 μM of the site-specific pan TG inhibitor 1,3-Dimethyl-2-[(2-oxo-propyl)thio]imidazolium chloride. […] Changes in optical density were measured at 450 nm in a 96 well plate reader. Data represents mean OD at 450 nm corrected to 1 mg of cell protein. n=6 wells per experimental group.
Extracellular TG activity was measured by modified cell ELISA. HK-2 epithelial cells were harvested using 0.1M EDTA or 0.25% trypsin/EDTA and plated at a density of 8×10^4 cells/well in serum free medium onto a 96 well plate that had been coated overnight with 100 μl/well of fibronectin (5 μg/ml in 50 mM Tris-HCl pH 7.4) (Sigma, Poole UK). Cells were allowed to attach for 2.5 h at 37° C. in the presence of the 0.1 mM biotin cadaverine [N-(5 amino pentyl biotinamide) trifluoroacetic acid] (Molecular Probes, Eugene Oreg., USA). Plates were washed twice with 3 mM EDTA/PBS and cells removed with 0.1% (w/v) deoxycholate in 5 mM EDTA/PBS. The supernatant was collected and used for protein determination. […] The reaction was stopped with 50 μl 2.5 M H2SO4 and the absorbance read at 450 nm.

| Molecule | hybridoma supernatant ability to inhibit TG2 activity (human TG2) | also measured |
| --- | --- | --- |
| AH3: murine TG2 inhibitory monoclonal antibody; VH and VK in FIG. 24 (antibody, V domains shown) VH: EVQLQQSGPELVKPGASVKMSCRASGYTFTTYVIHWVKQKPGQGLEWIGYINPYNDGARYNEKFKGKATLTSDKSSTTAYMELSSLTSEDSAVYYCARLSSDYWGQGTTLTVSS VL: DVLMTQNPLSLPVSLGDQASISCRSSRSIEHSNGNTYLEWYLQKPGQSPKFLIYKVSNRFSGVPDRFSGSGSGTDFTLRISSVEAEDLGVYYCFQGSHVPFTFGGGTKLEIK | able to inhibit TG2 activity | – |
| AG9: murine TG2 inhibitory monoclonal antibody; VH and VK in FIG. 23 (antibody, V domains shown) VH: EVQLQQSGPELVKPGASVKMSCRASGYTFTTYVIHWVKQKPGQGLEWIGYINPYNDGARYNEKFKGKATLTSDKSSTTAYMELSSLTSEDSAVYYCARLSSDYWGQGTTLTVSS VL: DVLMTQNPLSLPVSLGDQASISCRSSRSIEHSNGNTYLEWYLQKPGQSPKFLIYKVSNRFSGVPDRFSGSGSGTDFTLRISSVEAEDLGVYYCFQGSHVPFTFGGGTKLEIK | able to inhibit TG2 activity | – |
| BB7: murine monoclonal anti-TG2 IgG, Group 1; VL SEQ ID NO: 60, VH SEQ ID NO: 61 (antibody, V domains shown, BB-7 heavy chain variable region; BB-7 light chain variable region) VH: AVQLVESGGGLVKPGGSLKLSCAASGIIFSSSAMSWVRQTPEKRLEWVATISSGGRSTYYPDSVKGRFTVSRDSAKNTLYLQMDSLRSEDTAIYYCAKLISPYWGQGTTLTVSS VL: AIKMTQSPSSMYASLGERVIITCKASQDINSYLTWFQQKPGKSPKTLIYLTNRLMDGVPSRFSGSGSGQEFLLTISGLEHEDMGIYYCLQYVDFPYTFGGGTKLEIK | able to inhibit TG2 activity | inhibition of TG2 activity in HepG2 homogenate ([1]; 0.5 μg of antibody, 45 ug lysate protein): 90% |

Further lines, with some results ahead:

| hybridoma supernatant ability to inhibit TG2 activity (human TG2) | Molecule | also measured |
| --- | --- | --- |
| able to inhibit TG2 activity | EH6: murine monoclonal anti-TG2 IgG, Group 1; VH and VK in FIG. 22 (antibody, V domains shown) VH: EVQLQQSGPELVKPGASVKMSCKASGYTFTSYVMHWVKQKPGQGLEWIGFINPYNDGTKYNEKFKGKATLTSDKASTTAYMELSSLTSEDSAVYYCARFSSGYWGQGTTLTVSS VL: DVLMTQTPLSLPVSLGDQASISCRSSQSIVHSNGNTYLEWYLQKPGQSPKLLIYKVSNRFSGVPDRFSGSGSGTDFTLKISRVGAEDLGVYYCLQVSHVPFTFGSGTKLEIK | – |
| able to inhibit TG2 activity | JE12: murine monoclonal anti-TG2 IgG, Group 1; VH and VK in FIG. 21 (antibody, V domains shown) VH: EVQLQQSGPELVKPGASVKMSCKASGYRFTSYVMHWVKQKSGQGLEWIGYINPYNDGAKYNEKFKGKATLTSDKSSSTAYMELSSLTSEDSAVYYCARLSSDYWGQGTTLTVSS VL: DVLMTQNPLSLPVSLGDQASISCRSSQSIEHINGNTYLEWYLQKPGQSPKFLIYKVSNRFSGVPDRFSGSGSGTDFTLRISRVEAEDLGIYYCFQGSHVPFTFGGGTKLEIK | – |
| able to inhibit TG2 activity | DC1: murine monoclonal anti-TG2 IgG, Group 1; VL SEQ ID NO: 70, VH SEQ ID NO: 71 (antibody, V domains shown, DC-1 heavy chain variable region; DC-1 light chain variable region) VH: EVQLVESGGGLVKPGGSLKLSCAASGFTLSTHAMSWVRQTPEKRLEWVATISSGGRSTYYPDSVKGRFTISRDNVKNTLYLQLSSLRSEDTAVYFCARLISTYWGQGTTLTVSS VL: DITMTQSPSSIYASLGERVTITCKASQDINSYLTWFQQKPGKSPKILIYLVNRLVDGVPSRFSGSGSGQDYALTISSLEYEDMGIYYCLQYDDFPYTFGGGTKLEIK | IC50 against human TG2 (human TG2; amount of IgG in the reaction that would inhibit 1 ng of TG2, 100 ng human TG2): 0.011 µg/mL; inhibition of TG2 in human Hep2G cells (in words) [1]: able to inhibit TG2 successfully; inhibition of extracellular TG activity ([2]; 4 ng/ul in the culture media): 55%; inhibition of extracellular TG2 in human HK-2 cells (in words) ([2]; applied to the culture media): able to inhibit TG2 successfully |
